Data reported in patent US20220396632A1 (VERSEAU THERAPEUTICS, published 2022).
Residue numbers refer to the chain shown, from its start. Non-standard residues stand in square brackets, D forms with d. No end group written: not given here. *: point of attachment. Biotin = O=C1N[C@H]2[C@H](CS[C@H]2CCCCC(=O)*)N1; sY = N[C@@H](Cc1ccc(OS(=O)(=O)O)cc1)C(=O)O

B1: 5E12 (antibody, V domains shown)
VH: EIQLQQSGAELVRPGASVKLSCTASGFNIKDDYIHWVKQRPEQGLEWIGRIDPANGNTKSAPKFQDKATITADTSSNTAYLHLSSLTSEDTAVYYCSIRFAYWGQGTLVTVSA
VL: DVVMTQTPLSLSVSLGDQASISCRSSQSLVYRNGDTYLHWFLQKPGQSPKLLIYKVSNRFSGVPDRFSGSGSGTDFTLKISRVEAEDLGIYFCSQNTHVPYTFGGGTKLEIK
notes: Mouse hybridoma mAb; only variable domains given
B2: 43B6 (antibody, V domains shown)
VH: EVQLQQSGPDLVKPGALVKISCKASGYSFTAYYIHWVKQSHGKSLEWIGRVNPNTGGTSYNPKFKGKAILNVDKSSSTAYMELRSLTSEDSAVYYCARSGSPYYRYDDWGQGTTLTVSS
VL: ENVLTQSPAIMSASPGEKVTMTCRASSTVNSTYLHWFQQKSGASPKLWIYGSSNLASGVPARFSGSGSGTSYSLTISSVEAEDAATYYCQQYSGYPLTFGAGTTLELK
notes: Control anti-PSGL-1 mAb, recombinant; only variable domains given; also called 43B3
B3: 9F9 (antibody, V domains shown)
VH: EVQLVETGGGLVQPKGSLKLSCAASGFTFNTNAMNWVRQAPGKGLEWVARIRSKSNNYATYYADSVKDRFTISRDDTQSMIYLQMNNLKTEDTGMYYCVRGGSYWYFDVWGAGTTVTVSS
VL: DVLMTQTPLSLPVSLGDQASISCRSSQSIVNSNGNTYLEWYLQKPGQSPKLLIYKVSNRFSGVPDRFSGSGSGTDFTLKISRVEAEDLGVYYCFQGSHVPWTFGGGTKLEIK
notes: Control anti-PSGL-1 mAb, recombinant; only variable domains given; also called 9F6
B4: 16E17 (antibody, V domains shown)
VH: QIQLVQSGPELKKPGETVKISCKASGYAFTTYGMSWVKQAPGKGLKWMGWINTYSGVPKYADDFKGRFAFSLETSASTAYLHINNLKNEDTATYFCGRHYYGSSYFDYWGQGTTLTVSS
VL: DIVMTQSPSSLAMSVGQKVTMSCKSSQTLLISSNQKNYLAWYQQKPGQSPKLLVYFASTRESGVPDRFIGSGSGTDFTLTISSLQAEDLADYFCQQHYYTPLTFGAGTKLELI
notes: From mouse immunisation; only variable domains given
B5: 18K07 (antibody, V domains shown)
VH: QIQLVQSGPELKKPGETVKISCEASGYTFTTYGMNWVKQAPGKGLKWMGWINTYSGVPTYADDFQGRFAFSVETSATTAYLQINNLKNEDAATYFCARSDDTYYGFAYWGQGTLVTVSA
VL: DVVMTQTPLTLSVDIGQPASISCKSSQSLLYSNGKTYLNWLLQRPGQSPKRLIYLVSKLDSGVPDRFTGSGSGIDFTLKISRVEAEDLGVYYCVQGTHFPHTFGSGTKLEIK
notes: as for B4
B6: 19L04 (antibody, IgG4, V domains shown)
VH: B4 VH with A28T, K59T, H82Q, N88I, G97A, S104H
VL: DIMMTQSPSSLAMSVGQKVTLRCKSSQSLLNSSNQKNYLAWYQQKPGQSPKLLVYFASTRESGVPVRFIGSGSGTDFTLTISSMQAEDLADYFCQQHYFSPLTFGAGTKLELK
notes: as for B4
B7: 19N05 (antibody, V domains shown)
VH: B4 VH with A28T, K59T, Y60F, H82Q, Y94F, G97A, H99N, S103N, S104H
VL: DVQITQSPSYLAASPGETISINCRASNNINKYLAWYQEKPGKTNKLLIYSGSTLQSGIPSRFSGSGSGTDFTLTISSLEPEDFAMYHCQQHNYYPLTFGAGTKLELK
notes: as for B4
B8: 09A02 (antibody, IgG4, V domains shown)
VH: EVQLVQSGGGLVKPGGSLRLSCAASGFTFRTAWMSWVRQAPGKGLEWVGRMKSKNDGGTTDYAAPVKGRFTISRDDSRDTVYLQMNSLKTEDTGVYYCATYAAGATVPWGQGTLVTVSS
VL: DIVMTQTPLSAPVTLGQPASISCRSSRSLLQRNGYNYVDWYQQKAGNPPRLLIYLGSRRASGVPDRFSGSGSDKDFTLKISRVEADDVGFYFCKQSLQAPPTFGGGTKIEIT
B9: 06A07 (antibody, IgG4, V domains shown)
VH: QVQLVQSGPELKNPGASVKVSCKASGYSFTNFYINWVRQAPGRGLEWVGWISPNNGNTHYARNLQGRVTMTTDTSTNTAYLELKNLRSDDTAIYFCGRSVSMGYWGQGTLVTVSS
VL: LPVLTQPPSVSKGLRQTATLTCTGNSKNVGNQGAAWLQQHQGQPPKLLSYRNNNRPSGISERFSASRSGNTASLTITGLQPEDEADYYCSAWDSSLSAQVFGGGTKLTVL
B10: 09C10 (antibody, V domains shown)
VH: EVKLLESGGGLIQPGGSLRLSCAASGFTVSNNYVTWVRQAPGKGLELVSSIYSGGGTYYADSVKGRFTISRDNSKNTVYLQMNSLRADDTAVYYCARNVPVTNFGYWGQGTLVTVSS
VL: DIVMTQSPLSLPVTLGQPASISCRSSQSLVYRDGNTYLNWFQQRPGQSPRRLIYKVSNRDSGVPDRFSGSGSGTDFTLKISRVEAEDVGVYYCMQLTHWPPGFAQGTKLEIK
B11: 06C04 (antibody, IgG4, V domains shown)
VH: EVQLVESGGGLVQPGGSLRLSCAASGFTFSDHYMDWVRQAPGKGLEWVGRSRNKVKSYTTAYAASVEGRITISRDDSKNSLYLEMNSLKTEDTAVYYCVRVRWGGAFDIWGQGTMVTVSS
VL: QPVLTQPPSASGSPGQSVTISCTGTSSDVGGYNYVSWYQQHPGKAPKLMIYEVSKRPSGVPDRFSGSKSGNTASLTVSGLQAEDEADYYCSSYAGSNNLRVFGGGTKLTVL

target: T1, Recombinant human PSGL-1(ECD)-hFc1 (R&D Systems, Cat. 3345-PS) (human, UniProt Q14242 42-305); assay: blocking ELISA vs VISTA-Fc, pH 6.0
T1 construct: Bought; Gln42-Val295 counted on AAC50061; also called PSGL-1-Fc; PSGL-1-hFc1 chimera; not shown: human IgG1 Fc, Pro100-Lys330
T1 sequence: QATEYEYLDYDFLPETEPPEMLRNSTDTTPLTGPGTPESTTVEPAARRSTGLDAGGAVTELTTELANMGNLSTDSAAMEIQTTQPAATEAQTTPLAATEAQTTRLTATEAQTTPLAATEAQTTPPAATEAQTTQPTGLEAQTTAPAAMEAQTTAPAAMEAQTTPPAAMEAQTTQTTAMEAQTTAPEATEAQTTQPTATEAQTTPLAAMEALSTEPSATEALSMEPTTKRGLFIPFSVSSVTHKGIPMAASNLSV

First: B1
Second: B2
The “% max Block” value of the first is lower: 0% for the first, 100% for the second.

First: B3
Second: B4
The “% max Block” value of the first is higher: 100% for the first, 0% for the second.

B5 and B6 are the same in “% max Block” value: 0% for the first, 0% for the second.

In the case of B7, the “% max Block” value is reported as 0%.

B2 and B3 are within 1.5-fold of each other in IC50: 9 nM for the first, 8 nM for the second.

target: T1, Recombinant human PSGL-1(ECD)-hFc1 (R&D …); assay: ELISA, 50 nM mAb
Experimental: (§1) Recombinant PSGL-1-hFc1 chimera protein consisting of PSGL-1's extracellular domain (ECD) served as a positive control. […] Primary antibody was added (25 ul per well) in duplicate at 50 nM in assay buffer (blocking buffer containing 0.05% Tween®20) into test and control (just blocked) wells and the plate incubated for 45 min at 37° C.

Going from B1 to B8, the A450nm rises from 2.05 A450nm to 2.51 A450nm.

First: B9
Second: B10
The A450nm of the first is higher: 2.51 A450nm for the first, 2.16 A450nm for the second.

Work on B11 yielded an A450nm of 2.22 A450nm.

Target: T2, SulfoTyr C4 peptide (not fully specified; Y4, Y7 and Y9 sulfated (SO3); C-terminal biotin)
T2 construct: also called C4 alpha chain peptide; human sulfotyrosinylated C4 peptide
T2 peptide: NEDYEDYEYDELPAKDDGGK
Assay: ELISA, 50 nM mAb
Experimental: as §1

Compared with B1, B8 is higher in “binding normalized to PSGL-1” value: 0.03 for the first, 1 for the second.

First: B9
Second: B10
The “binding normalized to PSGL-1” value of the first is lower: 0.63 for the first, 1.15 for the second.

For B11, the “binding normalized to PSGL-1” value was 0.94.

target: T3, Human fibrinogen protein (ThermoFisher, RP-43142) (human, UniProt P02671 20-629; P02675 31-491; P02679 27-453, limits assumed, natural sulfotyrosines); assay: ELISA, 50 nM mAb
T3 construct: mature; Native dimer with 3 pairs of non-identical chains; also called gamma-fibrinogen; γ fibrinogen protein
T3 sequence (looked up) 1: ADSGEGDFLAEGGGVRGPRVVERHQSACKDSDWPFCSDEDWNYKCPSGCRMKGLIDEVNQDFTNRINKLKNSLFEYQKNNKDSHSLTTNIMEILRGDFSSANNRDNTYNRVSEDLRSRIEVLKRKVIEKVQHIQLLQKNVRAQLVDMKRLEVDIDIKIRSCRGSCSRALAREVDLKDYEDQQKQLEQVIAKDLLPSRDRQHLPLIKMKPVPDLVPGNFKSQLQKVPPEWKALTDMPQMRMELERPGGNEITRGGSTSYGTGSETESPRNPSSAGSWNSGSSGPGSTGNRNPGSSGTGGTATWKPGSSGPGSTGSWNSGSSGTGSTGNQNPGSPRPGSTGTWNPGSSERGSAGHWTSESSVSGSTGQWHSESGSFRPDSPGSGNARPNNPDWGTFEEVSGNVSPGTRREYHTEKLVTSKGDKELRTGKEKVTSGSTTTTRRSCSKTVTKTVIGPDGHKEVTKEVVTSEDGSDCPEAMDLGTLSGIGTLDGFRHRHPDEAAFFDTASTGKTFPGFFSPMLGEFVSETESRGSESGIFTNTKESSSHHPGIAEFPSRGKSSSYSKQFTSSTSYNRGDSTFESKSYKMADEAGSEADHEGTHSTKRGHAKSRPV
T3 sequence (looked up) 2: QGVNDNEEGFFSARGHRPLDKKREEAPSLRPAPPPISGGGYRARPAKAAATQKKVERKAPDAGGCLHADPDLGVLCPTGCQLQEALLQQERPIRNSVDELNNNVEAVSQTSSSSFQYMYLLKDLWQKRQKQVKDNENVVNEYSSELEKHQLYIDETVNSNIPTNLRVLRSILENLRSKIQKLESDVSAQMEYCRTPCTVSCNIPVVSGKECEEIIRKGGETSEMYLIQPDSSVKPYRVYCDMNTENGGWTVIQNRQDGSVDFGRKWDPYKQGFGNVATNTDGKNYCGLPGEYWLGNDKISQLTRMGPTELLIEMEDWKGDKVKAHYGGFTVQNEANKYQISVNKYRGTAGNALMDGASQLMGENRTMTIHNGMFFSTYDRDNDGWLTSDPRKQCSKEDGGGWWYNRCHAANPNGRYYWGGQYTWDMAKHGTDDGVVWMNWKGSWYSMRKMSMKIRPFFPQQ
T3 sequence (looked up) 3: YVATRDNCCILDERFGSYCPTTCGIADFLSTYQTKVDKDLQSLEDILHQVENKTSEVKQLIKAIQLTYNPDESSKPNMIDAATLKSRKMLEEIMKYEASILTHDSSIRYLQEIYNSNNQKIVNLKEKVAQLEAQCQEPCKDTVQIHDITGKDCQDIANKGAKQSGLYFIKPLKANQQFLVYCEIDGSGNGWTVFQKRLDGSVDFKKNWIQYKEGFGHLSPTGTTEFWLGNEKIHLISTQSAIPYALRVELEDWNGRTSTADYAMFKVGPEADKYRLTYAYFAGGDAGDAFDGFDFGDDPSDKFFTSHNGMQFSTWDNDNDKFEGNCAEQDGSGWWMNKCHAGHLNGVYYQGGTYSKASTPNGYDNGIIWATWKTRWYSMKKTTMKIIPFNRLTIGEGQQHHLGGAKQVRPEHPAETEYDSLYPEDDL
Experimental: as §1

Going from B1 to B8, the “binding normalized to PSGL-1” value rises from 0.03 to 0.29.

First: B9
Second: B10
The “binding normalized to PSGL-1” value of the first is lower: 0.12 for the first, 0.61 for the second.

With B11 the “binding normalized to PSGL-1” value was 0.51.

target: T4, Human complement C4 protein (Millipore Sigma, Cat. 204886) (human, UniProt P0C0L4 20-675; P0C0L4 680-1446; P0C0L4 1454-1744, limits assumed, natural sulfotyrosines); assay: ELISA, 50 nM mAb
T4 construct: mature
Experimental: as §1

T4 sequence (P0C0L4 20-675 limits assumed, form in doubt, chain 1 of 3): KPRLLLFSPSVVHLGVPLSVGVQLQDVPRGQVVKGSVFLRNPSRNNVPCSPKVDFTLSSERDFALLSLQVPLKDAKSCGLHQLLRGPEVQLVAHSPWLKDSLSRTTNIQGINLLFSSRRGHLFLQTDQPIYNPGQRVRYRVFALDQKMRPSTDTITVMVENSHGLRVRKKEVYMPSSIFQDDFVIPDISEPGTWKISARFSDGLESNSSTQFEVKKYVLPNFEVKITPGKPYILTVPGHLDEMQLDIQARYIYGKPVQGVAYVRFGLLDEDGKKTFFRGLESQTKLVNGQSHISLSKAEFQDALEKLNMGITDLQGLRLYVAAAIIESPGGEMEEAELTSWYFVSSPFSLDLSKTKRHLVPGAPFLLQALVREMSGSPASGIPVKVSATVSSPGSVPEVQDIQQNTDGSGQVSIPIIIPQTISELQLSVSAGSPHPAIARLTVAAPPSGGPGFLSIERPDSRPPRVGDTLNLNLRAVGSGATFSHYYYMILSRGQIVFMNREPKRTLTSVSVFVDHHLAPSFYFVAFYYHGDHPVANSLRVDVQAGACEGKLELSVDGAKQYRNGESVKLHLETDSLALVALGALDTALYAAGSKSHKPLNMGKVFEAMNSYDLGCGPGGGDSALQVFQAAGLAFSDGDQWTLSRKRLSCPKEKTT
T4 sequence (P0C0L4 680-1446 limits assumed, form in doubt, chain 2 of 3): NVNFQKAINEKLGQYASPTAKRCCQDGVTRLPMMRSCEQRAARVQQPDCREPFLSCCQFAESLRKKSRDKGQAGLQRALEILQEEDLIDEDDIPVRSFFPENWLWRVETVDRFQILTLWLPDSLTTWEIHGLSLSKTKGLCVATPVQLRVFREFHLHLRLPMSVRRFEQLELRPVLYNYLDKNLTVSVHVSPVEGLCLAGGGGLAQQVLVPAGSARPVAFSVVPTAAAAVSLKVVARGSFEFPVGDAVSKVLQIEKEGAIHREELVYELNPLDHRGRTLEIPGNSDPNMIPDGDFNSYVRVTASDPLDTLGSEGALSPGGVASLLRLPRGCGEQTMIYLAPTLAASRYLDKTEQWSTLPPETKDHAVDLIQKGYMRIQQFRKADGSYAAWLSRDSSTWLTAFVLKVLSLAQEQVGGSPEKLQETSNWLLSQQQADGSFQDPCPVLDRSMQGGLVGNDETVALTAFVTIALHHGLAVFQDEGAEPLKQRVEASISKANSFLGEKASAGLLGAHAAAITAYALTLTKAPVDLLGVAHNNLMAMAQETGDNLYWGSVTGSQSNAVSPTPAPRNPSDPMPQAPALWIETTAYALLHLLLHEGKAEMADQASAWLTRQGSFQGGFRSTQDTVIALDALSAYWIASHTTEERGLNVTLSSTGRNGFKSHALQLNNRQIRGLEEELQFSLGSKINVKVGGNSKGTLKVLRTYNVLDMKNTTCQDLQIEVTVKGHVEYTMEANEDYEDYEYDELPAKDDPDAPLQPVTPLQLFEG
T4 sequence (P0C0L4 1454-1744 limits assumed, form in doubt, chain 3 of 3): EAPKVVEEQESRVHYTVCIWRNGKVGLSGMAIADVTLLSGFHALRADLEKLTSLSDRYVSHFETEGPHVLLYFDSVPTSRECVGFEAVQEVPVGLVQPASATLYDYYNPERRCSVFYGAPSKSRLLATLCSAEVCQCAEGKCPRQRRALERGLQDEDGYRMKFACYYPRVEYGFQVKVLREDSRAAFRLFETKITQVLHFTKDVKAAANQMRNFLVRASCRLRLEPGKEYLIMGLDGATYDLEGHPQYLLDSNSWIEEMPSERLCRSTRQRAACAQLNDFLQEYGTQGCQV

Going from B1 to B8, the “binding normalized to PSGL-1” value rises from 0.03 to 0.56.

Going from B9 to B10, the “binding normalized to PSGL-1” value rises from 0.57 to 0.88.

With B11 the “binding normalized to PSGL-1” value was 1.1.

Target: T5, SulfoCCK biotin peptide (human)
T5 construct: also called sulfotyrosine CCK peptide
T5 peptide: SHRISDRD[sY]MGWMDFGGK(Biotin)
Assay: ELISA, 50 nM mAb
Experimental: as §1

Going from B8 to B9, the “binding normalized to PSGL-1” value falls from 1.1 to 0.65.

Going from B10 to B11, the “binding normalized to PSGL-1” value falls from 0.75 to 0.06.

Target: T6, Sulfotyrosine CCR2b biotin peptide (human)
T6 construct: also called CCR2b peptide
T6 peptide: TTFFD[sY]D[sY]GAPSHGGK(Biotin)
Assay: ELISA, 50 nM mAb
Experimental: as §1

First: B1
Second: B8
The “binding normalized to PSGL-1” value of the first is lower: 0.03 for the first, 0.93 for the second.

Going from B9 to B10, the “binding normalized to PSGL-1” value rises from 0.43 to 1.23.

For B11, the “binding normalized to PSGL-1” value was 0.23.

Target: T7, Sulfotyrosine D6 biotin peptide (human)
T7 construct: also called D6 peptide
T7 peptide: ENSSFY[sY][sY]D[sY]LDEVAFGGK(Biotin)
Assay: ELISA, 50 nM mAb
Experimental: as §1

First: B1
Second: B8
The “binding normalized to PSGL-1” value of the first is lower: 0.03 for the first, 1.1 for the second.

First: B9
Second: B10
The “binding normalized to PSGL-1” value of the first is lower: 0.68 for the first, 1.2 for the second.

For B11, the “binding normalized to PSGL-1” value was 0.26.
